How the values were obtained:
[1] = target: T1, human C-MET His tagged, monomeric (human, UniProt P08581 25-932); assay: SPR Biacore, IgG captured, monomeric C-MET-His analyte
T1 construct: also called monomeric human C-MET; biotinylated human C-MET-His
Method: (§1) Affinity (KD) of purified IgGs was determined via SPR with antigen in-solution on a Biacore® 3000 (GE). A mouse anti-human antibody (CH1 specific) was immobilized on a CM5 Sensor Chip to a level of 2000 RU in acetate buffer at pH 4.5 using amine coupling following the Wizard instructions for two channels. One channel was used for background signal correction. The standard running buffer HBS-EP pH 7.4 was used. Regeneration was performed with a single injection of 10 μl of 10 mM Glycine at pH 1.5 at 20 μl/minute. IgG samples were injected for 2 minutes at 50 nM at 30 μl/min followed by and off-rate of 60 seconds. The monomeric antigen (human C-MET His tagged or cynomolgus monkey C-MET His tag) was injected in two fold serial dilutions from 100 nM down to 6 nM, for 2 minutes at 30 μl/min followed by an off-rate of 300 seconds. The obtained sensorgrams were analysed using the Biacore® 3000 evaluation (BIAevaluation) software. The KD was calculated by simultaneous fitting of the association and dissociation phases to a 1:1 Langmuir binding model.

[2] = target: T2, cynomolgus monkey C-MET His tag, monomeric (cynomolgus monkey, UniProt A0M8R7 25-932 (Papio anubis entry)); assay: as above
T2 construct: also called monomeric cyno C-MET; cyCMET
Method: as §1

[3] = target: T3, cynomolgus monkey C-MET on stably transfected CHO-K1 cells (cynomolgus monkey, UniProt A0M8R7 25-1381 (Papio anubis entry)); assay: flow cytometry, C-MET CHO-K1 cells
T3 construct: also called cycMET; cyno C-MET+ CHO-K1 cells
Method: (§2) Purified IgGs were tested in FACs for binding to human and cyno C-MET expressed on CHO-K1 stable cell lines and CHO-K1 wild-type cells. The IgG samples were titrated in three-fold serial dilutions starting at 500 nM to 0.08 nM. Binding of IgGs was detected with a mouse anti-human IgG conjugated to FITC. Results were analyzed by examining the Mean Fluorescence Intensity (MFI) of 10000 cells per sample in the BL-1 channel detector of a flow cytometer (Attune™ NxT Acoustic Focusing Cytometer, Invitrogen/ThermoFisher Scientific).

[4] = target: T4, human C-MET on stably transfected CHO-K1 cells (human, UniProt P08581 25-1390); assay: flow cytometry, C-MET CHO-K1 cells
T4 construct: also called hucMET; human C-MET+ CHO-K1 cells
Method: as §2

[5] = target: T3, cynomolgus monkey C-MET on stably …; assay: flow cytometry, C-MET CHO-K1 cells; remark: listed apart in the source
Method: as §2
(§3) Antibodies to C-MET were analysed for concentration-dependent binding at the cell surface via flow cytometry. CHO-K1 cells were stably transfected with either human or cyno C-MET full-length cDNAs. Anti-C-MET IgGs and an isotype control IgG4(S228P) were then all tested in IgG4(S228P) format, over a concentration range of 500-0.08 nM for binding to human (FIG. 5A) and cyno (FIG. 5B) CHO-K1 cells.

[6] = target: T4, human C-MET on stably transfected …; assay: flow cytometry, C-MET CHO-K1 cells; remark: listed apart in the source
Method: as §2, §3

T2 sequence (A0M8R7 25-932 S170N/I621T): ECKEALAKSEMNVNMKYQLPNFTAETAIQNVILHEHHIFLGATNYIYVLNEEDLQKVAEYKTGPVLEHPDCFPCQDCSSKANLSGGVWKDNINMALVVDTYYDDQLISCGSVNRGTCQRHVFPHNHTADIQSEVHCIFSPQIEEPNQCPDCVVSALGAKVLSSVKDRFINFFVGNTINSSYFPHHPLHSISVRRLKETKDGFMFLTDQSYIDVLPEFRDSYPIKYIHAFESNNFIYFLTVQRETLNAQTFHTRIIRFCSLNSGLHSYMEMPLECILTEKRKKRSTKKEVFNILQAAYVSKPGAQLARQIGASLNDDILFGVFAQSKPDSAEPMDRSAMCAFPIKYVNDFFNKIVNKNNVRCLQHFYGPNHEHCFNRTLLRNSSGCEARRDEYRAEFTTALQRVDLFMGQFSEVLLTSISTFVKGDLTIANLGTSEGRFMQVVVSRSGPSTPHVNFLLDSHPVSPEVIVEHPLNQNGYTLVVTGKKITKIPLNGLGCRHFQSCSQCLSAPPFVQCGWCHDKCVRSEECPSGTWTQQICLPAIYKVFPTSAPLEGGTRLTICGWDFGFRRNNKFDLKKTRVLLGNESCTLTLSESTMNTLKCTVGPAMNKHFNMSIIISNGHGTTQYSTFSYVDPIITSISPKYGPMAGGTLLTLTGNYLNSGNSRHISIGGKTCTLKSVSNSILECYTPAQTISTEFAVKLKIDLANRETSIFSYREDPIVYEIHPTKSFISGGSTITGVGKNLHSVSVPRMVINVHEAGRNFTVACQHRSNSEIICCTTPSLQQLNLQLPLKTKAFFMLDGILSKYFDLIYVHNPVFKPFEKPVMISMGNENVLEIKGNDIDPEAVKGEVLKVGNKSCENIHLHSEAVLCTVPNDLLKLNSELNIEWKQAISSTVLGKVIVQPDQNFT
T3 sequence (A0M8R7 25-1381 S170N/I621T limits assumed): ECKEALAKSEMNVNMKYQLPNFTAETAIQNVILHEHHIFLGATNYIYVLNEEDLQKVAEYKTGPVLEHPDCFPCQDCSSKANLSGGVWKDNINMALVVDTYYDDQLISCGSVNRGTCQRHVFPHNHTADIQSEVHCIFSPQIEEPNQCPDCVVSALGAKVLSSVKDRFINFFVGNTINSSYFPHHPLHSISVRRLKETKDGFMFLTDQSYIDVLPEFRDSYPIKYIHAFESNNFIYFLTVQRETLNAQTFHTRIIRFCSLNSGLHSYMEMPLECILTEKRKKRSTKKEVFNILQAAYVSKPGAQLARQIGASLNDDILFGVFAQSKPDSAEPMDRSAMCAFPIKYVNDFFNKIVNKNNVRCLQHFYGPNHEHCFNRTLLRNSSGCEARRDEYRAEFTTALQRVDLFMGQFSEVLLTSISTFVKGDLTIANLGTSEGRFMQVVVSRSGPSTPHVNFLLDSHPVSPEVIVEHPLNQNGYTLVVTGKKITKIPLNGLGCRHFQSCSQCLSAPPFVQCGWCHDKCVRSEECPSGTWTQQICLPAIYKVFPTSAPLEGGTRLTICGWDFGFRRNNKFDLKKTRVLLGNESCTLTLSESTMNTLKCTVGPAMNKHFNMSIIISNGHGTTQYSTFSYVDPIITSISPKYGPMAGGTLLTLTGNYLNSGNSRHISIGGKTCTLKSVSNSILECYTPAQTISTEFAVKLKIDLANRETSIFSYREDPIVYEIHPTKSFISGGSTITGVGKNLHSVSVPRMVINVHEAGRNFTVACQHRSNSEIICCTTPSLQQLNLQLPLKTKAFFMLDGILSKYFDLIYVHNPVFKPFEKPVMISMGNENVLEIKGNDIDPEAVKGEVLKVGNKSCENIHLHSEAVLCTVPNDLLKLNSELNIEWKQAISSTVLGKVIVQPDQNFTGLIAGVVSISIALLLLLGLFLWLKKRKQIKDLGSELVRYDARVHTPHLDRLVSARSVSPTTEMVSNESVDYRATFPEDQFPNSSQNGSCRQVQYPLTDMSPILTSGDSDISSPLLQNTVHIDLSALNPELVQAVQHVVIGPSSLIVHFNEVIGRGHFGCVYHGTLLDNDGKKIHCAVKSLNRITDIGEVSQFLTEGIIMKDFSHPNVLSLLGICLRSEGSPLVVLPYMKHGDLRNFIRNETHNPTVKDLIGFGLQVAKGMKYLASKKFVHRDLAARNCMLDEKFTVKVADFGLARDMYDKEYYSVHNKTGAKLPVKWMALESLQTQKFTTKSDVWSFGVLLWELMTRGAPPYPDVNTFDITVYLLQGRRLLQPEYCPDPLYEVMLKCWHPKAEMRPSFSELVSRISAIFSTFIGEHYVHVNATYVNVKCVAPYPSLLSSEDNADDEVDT
T1 sequence (P08581 25-932): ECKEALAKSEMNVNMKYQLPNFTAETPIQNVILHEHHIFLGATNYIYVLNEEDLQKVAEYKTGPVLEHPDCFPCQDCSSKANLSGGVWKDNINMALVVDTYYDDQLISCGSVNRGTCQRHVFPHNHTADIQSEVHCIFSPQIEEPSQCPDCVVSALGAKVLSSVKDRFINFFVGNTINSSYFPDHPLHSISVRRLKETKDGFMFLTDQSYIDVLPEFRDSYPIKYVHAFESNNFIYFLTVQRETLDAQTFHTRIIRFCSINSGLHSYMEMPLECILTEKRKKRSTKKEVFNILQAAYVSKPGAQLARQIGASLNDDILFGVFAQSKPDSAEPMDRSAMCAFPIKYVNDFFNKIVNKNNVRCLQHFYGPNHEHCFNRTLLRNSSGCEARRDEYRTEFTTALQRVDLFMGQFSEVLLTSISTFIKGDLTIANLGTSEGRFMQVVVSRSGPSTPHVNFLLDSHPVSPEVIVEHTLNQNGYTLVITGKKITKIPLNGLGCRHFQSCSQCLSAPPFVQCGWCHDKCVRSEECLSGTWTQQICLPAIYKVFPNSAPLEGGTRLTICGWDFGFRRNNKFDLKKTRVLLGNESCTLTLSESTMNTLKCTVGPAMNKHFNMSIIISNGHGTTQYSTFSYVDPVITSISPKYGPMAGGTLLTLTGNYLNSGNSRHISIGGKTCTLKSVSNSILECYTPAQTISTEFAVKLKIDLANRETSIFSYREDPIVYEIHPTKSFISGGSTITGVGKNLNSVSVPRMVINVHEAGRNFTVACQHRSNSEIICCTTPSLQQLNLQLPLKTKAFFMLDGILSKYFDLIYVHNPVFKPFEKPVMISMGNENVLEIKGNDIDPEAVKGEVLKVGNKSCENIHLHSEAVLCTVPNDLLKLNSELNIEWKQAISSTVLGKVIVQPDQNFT
T4 sequence (P08581 25-1390 limits assumed): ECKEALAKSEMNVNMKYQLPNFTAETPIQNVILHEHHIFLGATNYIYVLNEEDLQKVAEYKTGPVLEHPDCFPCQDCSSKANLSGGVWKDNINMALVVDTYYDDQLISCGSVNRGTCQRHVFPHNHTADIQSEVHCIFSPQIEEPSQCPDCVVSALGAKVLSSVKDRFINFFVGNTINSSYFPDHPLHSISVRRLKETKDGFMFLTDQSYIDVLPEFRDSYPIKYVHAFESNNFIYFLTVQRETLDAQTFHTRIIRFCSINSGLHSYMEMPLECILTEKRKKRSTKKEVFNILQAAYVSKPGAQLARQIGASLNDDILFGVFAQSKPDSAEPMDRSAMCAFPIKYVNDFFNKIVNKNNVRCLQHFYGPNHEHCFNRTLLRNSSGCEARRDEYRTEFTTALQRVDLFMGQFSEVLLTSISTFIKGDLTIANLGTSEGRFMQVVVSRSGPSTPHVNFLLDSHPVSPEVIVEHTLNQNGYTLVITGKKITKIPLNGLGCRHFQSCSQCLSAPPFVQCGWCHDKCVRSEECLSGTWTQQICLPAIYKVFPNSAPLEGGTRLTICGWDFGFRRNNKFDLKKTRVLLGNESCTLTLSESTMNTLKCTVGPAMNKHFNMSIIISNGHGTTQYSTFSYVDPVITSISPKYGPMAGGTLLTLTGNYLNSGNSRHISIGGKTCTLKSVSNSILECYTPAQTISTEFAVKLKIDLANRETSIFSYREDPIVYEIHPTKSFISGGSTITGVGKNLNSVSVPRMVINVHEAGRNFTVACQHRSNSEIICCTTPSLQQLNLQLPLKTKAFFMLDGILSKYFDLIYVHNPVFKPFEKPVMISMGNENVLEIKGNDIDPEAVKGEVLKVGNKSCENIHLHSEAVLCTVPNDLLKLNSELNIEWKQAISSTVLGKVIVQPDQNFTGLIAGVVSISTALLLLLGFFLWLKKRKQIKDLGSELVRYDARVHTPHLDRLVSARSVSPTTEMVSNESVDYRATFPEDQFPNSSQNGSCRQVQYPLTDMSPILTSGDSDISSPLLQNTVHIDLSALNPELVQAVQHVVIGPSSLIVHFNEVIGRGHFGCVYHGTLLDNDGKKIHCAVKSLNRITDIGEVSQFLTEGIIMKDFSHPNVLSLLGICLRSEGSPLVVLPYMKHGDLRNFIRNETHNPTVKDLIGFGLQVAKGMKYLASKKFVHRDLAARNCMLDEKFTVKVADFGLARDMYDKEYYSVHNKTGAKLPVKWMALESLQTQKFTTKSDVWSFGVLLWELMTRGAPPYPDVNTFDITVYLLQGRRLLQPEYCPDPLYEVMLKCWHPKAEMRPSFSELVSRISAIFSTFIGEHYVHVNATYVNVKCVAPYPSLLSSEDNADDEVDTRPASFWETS

Binder	Kd [1] [nM]	koff [1] [s⁻¹]	kon [1] [M⁻¹ s⁻¹]	Kd [2] [nM]	koff [2] [s⁻¹]	kon [2] [M⁻¹ s⁻¹]	EC50 [3] [nM]	EC50 [4] [nM]	maximum MFI, fold over Isotype IgG4 background [5] [fold]	maximum MFI, fold over Isotype IgG4 background [6] [fold]
MH12 (antibody, IgG4, V domains shown) VH: QVQLVQSGAEVKKPGASVKVSCKASGYTFTSYAMHWVRQAPGQGLEWMGWINPSGGSTSYAQKFQGRVTMTRDTSTSTVYMELSSLRSEDTAVYYCARQEITTEFDYWGQGTLVTVSS VL: EIVLTQSPGTLSLSPGERATLSCRASQSVSSYAQSYLHWYQQKPGQAPRLLIYRGSTRETGIPDRFSGSGSGTDFTLTISRLEPEDFAVYYCQQYGSSPLTFGGGTKVEIK	6.5	0.00037	56000	4	0.00043	110000	0.51	1.25	> 10	> 10
MH2 (antibody, IgG4, V domains shown) VH: QVQLVQSGAEVKKPGASVKVSCKASGYTFTSYTMHWVRQAPGQGLEWMGWINPNGGSTSYAQKFQGRVTMTRDTSTSTVYMELSSLRSEDTAVYYCARQEITTEFDYWGQGTLVTVSS VL: EIVLTQSPGTLSLSPGERATLSCRASQSVSSYAQSYLHWYQQKPGQAPRLLIYRGSTRETGIPDRFSGSGSGTDFTLTISRLEPEDFAVYYCQQSGSSPLTFGGGTKVEIK	2.5	0.00018	73000	0.87	0.00021	240000	0.34	1.59	> 10	> 10
MH6 (antibody, IgG4, V domains shown) VH: QVQLVQSGAEVKKPGASVKVSCKASGYTFTSYTMHWVRQAPGQGLEWMGWINPSGGSTSYAQKFQGRVTMTRDTSTSTVYMELSSLRSEDTAVYYCARQEITTEFDYWGQGTLVTVSS VL: EIVLTQSPGTLSLSPGERATLSCRASQSVSSYAQSYLHWYQQKPGQAPRLLIYRGSTRETGIPDRFSGSGSGTDFTLTISRLEPEDFAVYYCQQYGSSPLTFGGGTKVEIK	8.2	0.00053	65000	4	0.00063	160000	0.72	1.33	> 10	> 10
MH3 (antibody, IgG4, V domains shown, also called MH03) VH: QVQLVQSGAEVKKPGASVKVSCKASGYTFTSYTMHWVRQAPGQGLEWMGWINPNGGSTSYAQKFQGRVTMTRDTSTSTVYMELSSLRSEDTAVYYCARQEITTEFDYWGQGTLVTVSS VL: EIVLTQSPGTLSLSPGERATLSCRASQSVSSYAQSYLHWYQQKPGQAPRLLIYRGSTRETGIPDRFSGSGSGTDFTLTISRLEPEDFAVYYCQQYGSSPLTFGGGTKVEIK	7.6	0.00051	68000	4.1	0.00062	150000	0.27	1.66	> 10	> 10
MH11 (antibody, IgG4, V domains shown) VH: QVQLVQSGAEVKKPGASVKVSCKASGYTFTSYAMHWVRQAPGQGLEWMGWINPSGGSTSYAQKFQGRVTMTRDTSTSTVYMELSSLRSEDTAVYYCARQEITTEFDYWGQGTLVTVSS VL: EIVLTQSPGTLSLSPGERATLSCRASQSVSSYAQSYLHWYQQKPGQAPRLLIYRGSTRETGIPDRFSGSGSGTDFTLTISRLEPEDFAVYYCQQSGSSPLTFGGGTKVEIK	2.6	0.00016	62000	1.2	0.00018	150000	0.69	1.68	> 10	> 10
08B12 (antibody, IgG4, V domains shown) VH: QVQLVQSGAEVKKPGASVKVSCKASGYIFTAYSMHWVRQAPGQGLEWMGWIKPNNGSTNYAQKFQGRVTMTRDTSTSTVYMELSSLRSEDTAVYYCARTEITTEFDYWGQGTLVTVSS VL: EIVLTQSPGTLSLSPGERATLSCRASQSVDSYANSYLHWYQQKPGQAPRLLIYRGSTRETGIPDRFSGSGSGTDFTLTISRLEPEDFAVYYCQQSKSDPLTFGGGTKVEIK	8.4	0.00031	37000	8.1	0.00043	54000	1.34	11.7	> 10	> 10

Now those with a lower Kd [1], led by results:

Kd [1] [nM]	koff [1] [s⁻¹]	kon [1] [M⁻¹ s⁻¹]	Kd [2] [nM]	koff [2] [s⁻¹]	kon [2] [M⁻¹ s⁻¹]	EC50 [3] [nM]	EC50 [4] [nM]	maximum MFI, fold over Isotype IgG4 background [5] [fold]	maximum MFI, fold over Isotype IgG4 background [6] [fold]	Binder
0.78	9.4e-05	120000	3.2	0.00021	65000	2.82	9.59	> 10	> 10	07C10 (antibody, IgG4, V domains shown) VH: QVQLVQSGAEVKKPGASVKVSCKASGYIFTAYSMHWVRQAPGQGLEWMGIIKPSNGSTNYAQKFQGRVTMTRDTSTSTVYMELSSLRSEDTAVYYCARAEITTEFDYWGQGTLVTVSS VL: EIVLTQSPGTLSLSPGERATLSCRASQSVESYAQSYLHWYQQKPGQAPRLLIYRGSTRESGIPDRFSGSGSGTDFTLTISRLEPEDFAVYYCQQSKEEPLTFGGGTKVEIK
0.37	3.7e-05	99000	0.22	5.2e-05	230000			> 10	> 10	Grafted clone (Graft), IGHV1-46/IGKV3-20 CDR graft of 224G11 (antibody, human IgG4, V domains shown, also called VH graft/VL graft) VH: QVQLVQSGAEVKKPGASVKVSCKASGYIFTAYTMHWVRQAPGQGLEWMGWIKPNNGLANYAQKFQGRVTMTRDTSTSTVYMELSSLRSEDTAVYYCARSEITTEFDYWGQGTLVTVSS VL: EIVLTQSPGTLSLSPGERATLSCRASQSVDSYANSFLHWYQQKPGQAPRLLIYRASTRESGIPDRFSGSGSGTDFTLTISRLEPEDFAVYYCQQSKEDPLTFGGGTKVEIK
1.1	4.1e-05	37000	0.2	1.2e-05	60000	3.78	9.3	> 10	> 10	09B08 (antibody, IgG4, V domains shown) VH: QVQLVQSGAEVKKPGASVKVSCKASGYTFTSYTMHWVRQAPGQGLEWMGWINPNNGSTNYAQKFQGRVTMTRDTSTSTVYMELSSLRSEDTAVYYCARSEITTDFDYWGQGTLVTVSS VL: EIVLTQSPGTLSLSPGERATLSCRASQSVSSYANSYLHWYQQKPGQAPRLLIYRGSTRESGIPDRFSGSGSGTDFTLTISRLEPEDFAVYYCQQSKSDPLTFGGGTKVEIK
0.75	7.11e-05	94700	0.14	2.6e-05	180000	0.26	2.02	> 10	> 10	MH1 (antibody, IgG4, V domains shown) VH: QVQLVQSGAEVKKPGASVKVSCKASGYTFTSYTMHWVRQAPGQGLEWMGWINPNGGSTSYAQKFQGRVTMTRDTSTSTVYMELSSLRSEDTAVYYCARQEITTEFDYWGQGTLVTVSS VL: EIVLTQSPGTLSLSPGERATLSCRASQSVSSYANSYLHWYQQKPGQAPRLLIYRGSTRESGIPDRFSGSGSGTDFTLTISRLEPEDFAVYYCQQSKSEPLTFGGGTKVEIK
2	0.00015	77000	1.3	0.00021	170000	0.3	1.76	> 10	> 10	MH5 (antibody, IgG4, V domains shown) VH: QVQLVQSGAEVKKPGASVKVSCKASGYTFTSYTMHWVRQAPGQGLEWMGWINPSGGSTSYAQKFQGRVTMTRDTSTSTVYMELSSLRSEDTAVYYCARQEITTEFDYWGQGTLVTVSS VL: EIVLTQSPGTLSLSPGERATLSCRASQSVSSYAQSYLHWYQQKPGQAPRLLIYRGSTRETGIPDRFSGSGSGTDFTLTISRLEPEDFAVYYCQQSGSSPLTFGGGTKVEIK

Source: patent publication US20260042850A1 (LOCKBODY THERAPEUTICS, published 2026)
